Consider 12 molecules from publication PMC6502667 (Journal of structural biology, 2019).

For assay [1], the target named is human plasminogen (human) (UniProt P00747). Kind of assay: SPR. (In SPR one partner is held on a chip, and binding of the other changes the refractive index at the surface.)
The target of assay [2] is PAM_(NS455), PAM of GAS isolate NS455 (emm52), residues 42-401 (Streptococcus pyogenes (GAS) isolate NS455 (emm52)). Kind of assay: AUC.
The target is the same in assay [3]. Nature of the assay: AUC. The source holds these as a separate data set.
In assay [4] the target is PAM_(NS223), PAM of GAS isolate NS223 (emm91), residues 42-399 (Streptococcus pyogenes (GAS) isolate NS223 (emm91)). Kind of assay: AUC.
Assay [5] shares this target. Kind of assay: AUC. This is another data set of the same source.
For assay [6], the target named is PAM_(SS1448), PAM of GAS isolate SS1448 (emm86.2), residues 42-375 (Streptococcus pyogenes (GAS) isolate SS1448 (emm86.2)) (UniProt P49054). Nature of the assay: AUC.
For assay [7] the target is unchanged. Kind of assay: AUC. This is another data set of the same source.
Assay [8] addresses PAM_(SS1574), PAM of GAS isolate SS1574 (emm224), residues 42-360 (Streptococcus pyogenes (GAS) isolate SS1574 (emm224)) (UniProt P49054). Kind of assay: AUC.
The target is the same in assay [9]. Kind of assay: AUC. The source holds these as a separate data set.
The target in assay [10] is PAM_(SS1572), PAM of GAS isolate SS1572 (emm223), residues 42-399 (Streptococcus pyogenes (GAS) isolate SS1572 (emm223)). Kind of assay: AUC.
For assay [11] the target is unchanged. Kind of assay: AUC. This is another data set of the same source.
Assay [12] addresses human plasminogen (human) (UniProt P00747). Kind of assay: SPR. The source holds these as a separate data set.
Assay [13] shares this target. Nature of the assay: SPR. The source holds these as a separate data set.
The target is the same in assay [14]. Nature of the assay: SPR. This is another data set of the same source.
Assay [15] has the same target. Nature of the assay: SPR. The source holds these as a separate data set.
In assay [16] the target is PAM_(NS88.2), PAM of GAS isolate NS88.2 (emm98.1), residues 42-385 (Streptococcus pyogenes (GAS) isolate NS88.2 (emm98.1)) (UniProt P49054). Nature of the assay: AUC.
Assay [17] shares this target. Kind of assay: AUC. The source holds these as a separate data set.
The target of assay [18] is T1, human plasminogen (human, UniProt P00747 20-810). Kind of assay: SPR.
T1 sequence (P00747 20-810): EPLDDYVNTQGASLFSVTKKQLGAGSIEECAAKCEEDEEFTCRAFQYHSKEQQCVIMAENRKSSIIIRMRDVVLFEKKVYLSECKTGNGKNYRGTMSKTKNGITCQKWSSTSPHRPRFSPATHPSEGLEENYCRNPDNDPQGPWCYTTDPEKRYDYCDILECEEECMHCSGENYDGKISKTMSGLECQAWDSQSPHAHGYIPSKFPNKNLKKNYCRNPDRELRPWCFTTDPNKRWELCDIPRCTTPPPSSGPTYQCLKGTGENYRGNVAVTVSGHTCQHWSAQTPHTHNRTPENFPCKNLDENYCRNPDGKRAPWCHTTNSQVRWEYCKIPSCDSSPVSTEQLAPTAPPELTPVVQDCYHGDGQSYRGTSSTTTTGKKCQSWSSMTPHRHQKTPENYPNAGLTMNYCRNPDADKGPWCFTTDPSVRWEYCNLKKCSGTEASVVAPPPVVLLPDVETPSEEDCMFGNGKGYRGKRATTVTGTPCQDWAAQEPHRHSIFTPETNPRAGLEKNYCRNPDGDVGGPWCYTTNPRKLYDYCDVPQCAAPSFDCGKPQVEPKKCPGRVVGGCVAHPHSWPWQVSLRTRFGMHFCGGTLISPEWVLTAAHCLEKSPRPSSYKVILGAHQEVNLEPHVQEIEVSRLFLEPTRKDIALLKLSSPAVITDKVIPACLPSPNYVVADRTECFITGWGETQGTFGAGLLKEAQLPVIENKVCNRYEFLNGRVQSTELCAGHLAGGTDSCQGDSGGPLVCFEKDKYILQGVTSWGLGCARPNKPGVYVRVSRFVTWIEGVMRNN
The target in assay [19] is T1, human plasminogen. Nature of the assay: SPR. This is another data set of the same source.
Assay [20] addresses T1, human plasminogen. Nature of the assay: SPR. The source holds these as a separate data set.
In assay [21] the target is T1, human plasminogen. Nature of the assay: SPR. This is another data set of the same source.
Assay [22] deals with T1, human plasminogen. Kind of assay: SPR. The source holds these as a separate data set.

Like-named read-outs stand apart in the source and are kept apart here.

The term Kd denotes a measure of binding affinity in units of concentration. A word on the koff: it is the first-order rate constant of dissociation. Broadly, the kon is the rate constant with which the complex forms.

Sequence of human plasminogen (human) (P00747 20-810): as above

As to “PAM_(NS455), PAM of GAS isolate NS455 (emm52), residues 42-401 (natural protein)”, in assay [1], the dissociation constant (Kd) turned out to be 6 nM, the off-rate constant (koff) was found to be 0.0014 s⁻¹ and the association rate constant (kon) was 340000 M⁻¹ s⁻¹. In addition, the % dimer in assay [2] stood at 86.8%. Also, in assay [3], the % dimer turned out to be 20.4%.
The molecule “PAM_(NS223), PAM of GAS isolate NS223 (emm91), residues 42-399 (natural protein)” gave a koff in assay [1] of 0.0056 s⁻¹. Moreover, the % dimer in assay [4] was 94.5%; in assay [5] it was 33.7%.
“PAM_(SS1448), PAM of GAS isolate SS1448 (emm86.2), residues 42-375 (from UniProt P49054 42-375) (natural protein)”: the equilibrium dissociation constant (Kd) in assay [1] worked out at 7000 nM. The % dimer in [6] was found to be 86.7%; in [7], 56.4%.
As to “PAM_(SS1574), PAM of GAS isolate SS1574 (emm224), residues 42-360 (from UniProt P49054 42-360) (natural protein)”, in assay [1], the Kd was found to be 14 nM, the koff was found to be 0.0075 s⁻¹ and the kon was 562000 M⁻¹ s⁻¹. In assay [8], the % dimer amounted to 100%. Moreover, the % dimer in assay [9] was found to be 33.5%.
In assay [1], “PAM_(AP53), plasminogen-binding group A streptococcal M-protein of GAS isolate AP53 (emm53), residues 42-392 (natural protein)” displayed an equilibrium dissociation constant (Kd) of 21 nM, a koff of 0.0043 s⁻¹ and a kon of 210000 M⁻¹ s⁻¹.
In assay [1], “PAM_(SS1572), PAM of GAS isolate SS1572 (emm223), residues 42-399 (natural protein)” returned a Kd of 40 nM, a koff of 0.0055 s⁻¹ and a kon of 170000 M⁻¹ s⁻¹. In assay [10], this molecule had a % dimer of 95%. The molecule also came in with a % dimer in [11] of 75.3%.
In the case of “KTI55_(SS1448), peptide of PAM_(SS1448) residues 85-139 (from UniProt P49054 85-139)”, the Kd in [1] was found to be 360 nM; in assay [12], 540 nM; in assay [13], 2100 nM; in assay [14], 1500 nM; in assay [15], 27 µM.
“PAM_(NS88.2), PAM of GAS isolate NS88.2 (emm98.1), residues 42-385 (from UniProt P49054 42-385) (natural protein)” came in with a Kd in assay [1] of 5700 nM. Besides, the % dimer in assay [16] is 91.4%; in [17], 55.5%.
Take “AGL55_(NS88.2), peptide of PAM_(NS88.2) residues 95-149 (from UniProt P49054 95-149)”: the Kd in [1] is 160 nM; in [12], 350 nM; in assay [13], 630 nM; in [14], 830 nM; in assay [15], 7.1 µM.

B1: PAM_(AP53_medium), truncated PAM_(AP53), residues 42-207 (HVR-a1a2-B-c1) (domain or fragment)
chain: NRADDARNEVLRGNLVRAELWYRQIQENDQLKLENKGLKTDLREKEEELQGLKDDVEKLTADAELQRLKNERHEEAELERLKSERHDHDKKEAERKALEDKLADKQEHLNGALRYINEKEAEAKEKEAEQKKLKEEKQISDASRQGLRRDLDASREAKKQVEKDLA
modifications: Paper number minus 12 gives the entry number. His6 left out. About 11% dimer at 25 C
On to B1, for which, in the assay with human plasminogen [18], the Kd came out at 2.4 nM, the koff stood at 0.00054 s⁻¹ and the kon came to 230000 M⁻¹ s⁻¹. In the assay with human plasminogen [19], this molecule returned a dissociation constant (Kd) of 16 nM, a dissociation rate constant (koff) of 0.0103 s⁻¹ and a kon of 650000 M⁻¹ s⁻¹.

B2: VEK75_(AP53), peptide of PAM_(AP53) residues 97-171 (peptide)
chain: VEKLTADAELQRLKNERHEEAELERLKSERHDHDKKEAERKALEDKLADKQEHLNGALRYINEKEAEAKEKEAEQ
modifications: Paper number minus 12 gives the entry number. N-terminal GS left by thrombin cleavage is omitted
Take B2: the Kd in the assay with human plasminogen [20] was 0.7 nM; with human plasminogen [21] it was 15 nM; in the assay with human plasminogen [22] it was 45 nM.

B3: PAM_(AP53_long), truncated PAM_(AP53), residues 42-338 (HVR-a1a2-B-c1c2c3-D) (domain or fragment)
chain: NRADDARNEVLRGNLVRAELWYRQIQENDQLKLENKGLKTDLREKEEELQGLKDDVEKLTADAELQRLKNERHEEAELERLKSERHDHDKKEAERKALEDKLADKQEHLNGALRYINEKEAEAKEKEAEQKKLKEEKQISDASRQGLRRDLDASREAKKQVEKDLANLTAELDKVKEEKQISDASRQGLRRDLDASREAKKQVEKGLANLTAELDKVKEEKQISDASRQGLRRDLDASREAKKQVEKALEEANSKLAALEKLNKELEESKKLTEKEKAELQAKLEAEAKALKEQLAK
modifications: Paper number minus 12 gives the entry number. His6 left out. Coiled-coil dimer (87% at 25 C)
Take B3: in the assay with human plasminogen [18], the Kd amounted to 2 nM, the off-rate (koff) was 0.00013 s⁻¹ and the kon was found to be 90000 M⁻¹ s⁻¹. For the same molecule, in the assay with human plasminogen [19], the Kd worked out at 37 nM, the koff was found to be 0.0043 s⁻¹ and the kon came to 120000 M⁻¹ s⁻¹.
